Common to all, as to assay: cell-based or functional assay
Experiment [1] addresses HIV-1 Env of isolate 8110 (HIV-1).
Experiment [2] concerns the target HIV-1 Env of strain BaL (HIV-1).
For experiment [3], the target named is HIV-1 Env of isolate 8134 (HIV-1).
Experiment [4] concerns the target HIV-1 Env of isolate 8117 (HIV-1).
Experiment [5] deals with HIV-1 Env of isolate 8359 (HIV-1).
For experiment [6], the target named is HIV-1 Env of clone RHPA (HIV-1).

As to PGT-121.60 (antibody), the IC50 (neutralization, CEM.NKr.CCR5.LucR based assay) in experiment [1] is 0.514 µg/mL; in experiment [2], 0.015 µg/mL; in experiment [3], 0.062 µg/mL; in experiment [4], over 100 µg/mL; in experiment [5], 0.337 µg/mL; in experiment [6], 0.534 µg/mL.
